Results from patent publication US20140141011A1 (SCHERING, published 2014).
“And” between values parts separate entries of the source, which are not always exact repeats. Identical values can stand only once.

B1: hu-cy: humanized 23B12 VL/VH on cynomolgus constant domains (antibody)
heavy: QVQLVQSGAEVKKPGASVKVSCKASGYIFTDYAMHWVRQAPGQGLEWMGTFIPLLDTSDYNQNFKGRVTMTTDTSTSTAYMELRSLRSDDTAVYYCARMGVTHSYVMDAWGQGTLVTVSSASTKGPSVFPLAPSSRSTSESTAALGCLVKDYFPEPVTVSWNSGSLTSGVHTFPAVLQSSGLYSLSSVVTVPSSSLGTQTYVCNVNHKPSNTKVDKRVEIKTCGGGSKPPTCPPCPAPELLGGPSVFLFPPKPKDTLMISRTPEVTCVVVDVSQEDPDVKFNWYVNGAEVHHAQTKPRETQYNSTYRVVSVLTVTHQDWLNGKEYTCKVSNKALPAPIQKTISKDKGQPREPQVYTLPPSREELTKNQVSLTCLVKGFYPSDIVVEWESSGQPENTYKTTPPVLDSDGSYFLYSKLTVDKSRWQQGNVFSCSVMHEALHNHYTQKSLSLSPGK
light: EIVLTQSPGTLSLSPGERATLSCRASQPISISVHWYQQKPGQAPRLLIYFASQSISGIPDRFSGSGSGTDFTLTISRLEPEDFAVYYCQQTFSLPYTFGQGTKVEIKRTVAAPSVFIFPPSEDQVKSGTVSVVCLLNNFYPREASVKWKVDGVLKTGNSQESVTEQDSKDNTYSLSSTLTLSSTDYQSHNVYACEVTHQGLSSPVTKSFNRGEC
notes: also called hu-cy23B12; Cynoized anti hTSLP mAb 23B12 (huV-CynoC chimera)
B2: Rat anti-human TSLP antibody 23B12 (antibody, V domains shown)
VH: EEKLQQSGDDLVRPGAAVKMSCKASGYIFTDYAMHWVKQRPGQGLEWIGTFIPLLDTSDYNQNFKGRATLTADKSSNTAYMELSRLTSEDSAVYYCARMGVTHSYVMDAWGQGASVTVSS
VL: DIVLTQSPATLSVTPGESVSLSCRASQPISISVHWFQQKSNESPRLLIKFASQSISGIPSRFSGSGSGTDFTLNINRVESEDFSVYYCQQTFSLPYTFGTGTKLELKR
notes: Parental rat monoclonal antibody purified from hybridoma supernatant; the rat constant regions are not (a rat IgG2a isotype control is used beside it; the VL is of the kappa subclass); also called r23B12; rat 23B12
B3: Cyno-ized anti-human TSLP 23B12 antibody (antibody)
heavy: SQVQLVESGGGVVQPGRSLRLSCAASGYIFTDYAMHWVRQAPGKGLEWVATFIPLLDTSDYNQNFKGRFTISRDNSKNTLYLQMNSLRAEDTAVYYCARMGVTHSYVMDAWGQGTLVTVSSASTKGPSVFPLAPSSRSTSESTAALGCLVKDYFPEPVTVSWNSGSLTSGVHTFPAVLQSSGLYSLSSVVTVPSSSLGTQTYVCNVNHKPSNTKVDKRVEIKTCGGGSKPPTCPPCPAPELLGGPSVFLFPPKPKDTLMISRTPEVTCVVVDVSQEDPDVKFNWYVNGAEVHHAQTKPRETQYNSTYRVVSVLTVTHQDWLNGKEYTCKVSNKALPAPIQKTISKDKGQPREPQVYTLPPSREELTKNQVSLTCLVKGFYPSDIVVEWESSGQPENTYKTTPPVLDSDGSYFLYSKLTVDKSRWQQGNVFSCSVMHEALHNHYTQKSLSLSPGK
light: DIQMTQSPSSLSASVGDRVTITCRASQPISISVHWYQQKPGKAPKLLIYFASQSISGVPSRFSGSGSGTDFTLTISSLQPEDFATYYCQQTFSLPYTFGQGTKVEIKRTVAAPSVFIFPPSEDQVKSGTVSVVCLLNNFYPREASVKWKVDGVLKTGNSQESVTEQDSKDNTYSLSSTLTLSSTDYQSHNVYACEVTHQGLSSPVTKSFNRGEC
notes: Rat 23B12 CDRs on human VL kappa-I / VH-III frameworks fused to cynomolgus IgG constant domains, produced in CHO cells; also called cy23B12; Cynoized anti hTSLP mAb 23B12 (782+MAFA19/781MAFA7)
B4: cy-hu: cyno-ized 23B12 VL/VH on human constant domains (antibody)
heavy: not shown
light: DIQMTQSPSSLSASVGDRVTITCRASQPISISVHWYQQKPGKAPKLLIYFASQSISGVPSRFSGSGSGTDFTLTISSLQPEDFATYYCQQTFSLPYTFGQGTKVEIKRTVAAPSVFIFPPSDEQLKSGTASVVCLLNNFYPREAKVQWKVDNALQSGNSQESVTEQDSKDSTYSLSSTLTLSKADYEKHKVYACEVTHQGLSSPVTKSFNRGEC
notes: also called cy-hu23B12; Cynoized anti hTSLP mAb 23B12 (782+hIgG1/781hukappa)
B5: Humanized anti hu TSLP mAb 23B12 (VL Y49) (antibody, human IgG1, kappa)
heavy: not shown
light: EIVLTQSPGTLSLSPGERATLSCRASQPISISVHWYQQKPGQAPRLLIYFASQSISGIPDRFSGSGSGTDFTLTISRLEPEDFAVYYCQQTFSLPYTFGQGTKVEIKRTVAAPSVFIFPPSDEQLKSGTASVVCLLNNFYPREAKVQWKVDNALQSGNSQESVTEQDSKDSTYSLSSTLTLSKADYEKHKVYACEVTHQGLSSPVTKSFNRGEC
notes: also called hu23B12(VL Y49); hu23B12
B6: Humanized anti hu TSLP mAb 23B12 (VL K49) (antibody, human IgG1, kappa, V domains shown)
VH: QVQLVQSGAEVKKPGASVKVSCKASGYIFTDYAMHWVRQAPGQGLEWMGTFIPLLDTSDYNQNFKGRVTMTTDTSTSTAYMELRSLRSDDTAVYYCARMGVTHSYVMDAWGQGTLVTVSS
VL: EIVLTQSPGTLSLSPGERATLSCRASQPISISVHWYQQKPGQAPRLLIKFASQSISGIPDRFSGSGSGTDFTLTISRLEPEDFAVYYCQQTFSLPYTFGQGTKVEIKR
notes: Light chain variant of hu23B12 with K at position 49; human IgG1 / kappa; also called hu23B12(VL K49)

How the values were obtained:
[1] = target: T1, Human TSLP (expression host not stated) (human, UniProt Q969D9 29-159); experiment: cell-based or functional assay
[2] = target: T2, Recombinant human TSLP, expressed in E. coli (human, UniProt Q969D9 29-159); experiment: KinExA, solution equilibrium, beads coated with biotinylated human TSLP; antigen R&D Systems 1398-TS
T2 construct: also called human TSLP E. coli; E. coli-B (biotinylated)

[3] = target: T1, Human TSLP (expression host not stated, …); experiment: SPR, BIAcore T100, as in Example 5 (TSLP immobilized)
[4] = target: T3, Cynomolgus monkey TSLP (cynomolgus monkey, UniProt A0A7N9CAT7 29-159); experiment: as above
T3 construct: also called cyno TSLP; cynoTSLP

[5] = target: T1, Human TSLP (expression host not stated, …); experiment: SPR, BIAcore T100, TSLP amine-coupled to CM5 chip, antibody injected, bivalent analyte model
[6] = target: T3, Cynomolgus monkey TSLP; experiment: as above
[7] = target: T4, Recombinant human TSLP, expressed in HEK293 (human, UniProt Q969D9 29-159); experiment: ELISA, TSLP coated on plate, antibody titrated; HEK293-B (biotinylated TSLP)
T4 construct: also called human TSLP HEK293; HEK293-B (biotinylated)

[8] = target: T2, Recombinant human TSLP, expressed in E. …; experiment: cell-based or functional assay
[9] = target: T3, Cynomolgus monkey TSLP; experiment: cell-based or functional assay
[10] = target: T4, Recombinant human TSLP, expressed in …; experiment: cell-based or functional assay
[11] = target: T4, Recombinant human TSLP, expressed in …; experiment: ELISA, TSLP coated on plate, antibody titrated; HEK293
[12] = target: T2, Recombinant human TSLP, expressed in E. …; experiment: KinExA, solution equilibrium, beads coated with biotinylated human TSLP; TSLP from E. coli
[13] = target: T4, Recombinant human TSLP, expressed in …; experiment: ELISA, mean of the 3 rows above (HEK293-B, HEK293, HEK293-F); mean of n = 3: HEK293-B, HEK293 and HEK293-F human TSLP
[14] = target: T4, Recombinant human TSLP, expressed in …; experiment: KinExA, solution equilibrium, beads coated with biotinylated human TSLP; TSLP from HEK293
[15] = target: T2, Recombinant human TSLP, expressed in E. …; experiment: KinExA, solution equilibrium, beads coated with biotinylated human TSLP; antigen R&D Systems 1398-TS; KinExA, not BIAcore
[16] = target: T2, Recombinant human TSLP, expressed in E. …; experiment: ELISA, TSLP coated on plate, antibody titrated; E. coli-B (biotinylated TSLP)
[17] = target: T1, Human TSLP (expression host not stated, …); experiment: ELISA, mean of all 5 rows on human TSLP (HEK293 and E. coli pooled)
[18] = target: T1, Human TSLP (expression host not stated, …); experiment: summary of Tables 10 and 11 (BIAcore, KinExA, Ba/F3 assay)
[19] = target: T4, Recombinant human TSLP, expressed in …; experiment: ELISA, direct coat of 200 ng TSLP instead of 100 ng, antibody titrated; HEK293
[20] = target: T1, Human TSLP (expression host not stated, …); experiment: ELISA, mean of all 19 rows on human TSLP (HEK293 and E. coli pooled)
[21] = target: T2, Recombinant human TSLP, expressed in E. …; experiment: ELISA, direct coat of 200 ng TSLP instead of 100 ng, antibody titrated; E. coli
[22] = target: T4, Recombinant human TSLP, expressed in …; experiment: ELISA, mean of the 12 rows above (HEK293, including HEK293-B and HEK293-F)
[23] = target: T3, Cynomolgus monkey TSLP; experiment: ELISA, mean of the 6 rows above (cyno TSLP from HEK293)
[24] = target: T2, Recombinant human TSLP, expressed in E. …; experiment: ELISA, TSLP coated on plate, antibody titrated; E. coli
[25] = target: T2, Recombinant human TSLP, expressed in E. …; experiment: ELISA, mean of the 7 rows above (E. coli, including E. coli-B)
[26] = target: T1, Human TSLP (expression host not stated, …); experiment: ELISA, mean of the 5 rows above on human TSLP (HEK293 and E. coli pooled)

Row | Binder | EC50, inhibition of TSLP-induced proliferation of Ba/F3 transfectants; TSLP hu, TSLPR hu [1] | Kd [2] | Kd [3] | Kd [4] | Kd [5] | Kd [6] | EC50 [7] | EC50 [11] | Kd [12] | Kd [14] | EC50 [16] | other results
1 | B1 | 5.3 nM | 0.0014 nM | 0.106 nM | 0.114 nM | – | – | – | – | – | – | – | –
2 | B2 | – | – | 0.064 nM and 0.126 nM and 0.114 nM | 0.086 nM and 0.112 nM | 0.064 nM | 0.086 nM | 0.79 nM | 0.37 nM | 0.00047 nM | 0.00022 nM | 0.4 nM and 0.39 nM | EC50 (mean of the 8 rows above), inhibition of TSLP-induced proliferation of Ba/F3-TSLPR-IL7Ra cells; TSLP human, E. coli [8]: 3.01 nM; EC50 (mean of the 4 rows above), inhibition of TSLP-induced proliferation of Ba/F3-TSLPR-IL7Ra cells; TSLP cyno, HEK293 [9]: 0.56 nM; EC50, inhibition of TSLP-induced proliferation of Ba/F3-TSLPR-IL7Ra cells (Alamar Blue); TSLP cyno, HEK293 [9]: 0.45 nM and 0.42 nM and 0.61 nM and 0.77 nM; EC50 (mean of the 5 rows above), inhibition of TSLP-induced proliferation of Ba/F3-TSLPR-IL7Ra cells; TSLP human, HEK293 [10]: 0.11 nM; EC50 [13]: 0.47 nM; Kd [15]: 0.00047 nM; EC50 [17]: 0.44 nM
3 | B3 | – | 0.052 nM | – | 1.16 nM and 2.51 nM | – | – | – | – | – | – | – | EC50, inhibition of TSLP-induced proliferation of Ba/F3 transfectants; TSLP hu, TSLPR cyno [1]: 0.03 nM and 0.05 nM; fold reduction in binding against hu23B12 [18]: 5 fold; fold reduction in binding against parental rat 23B12 [18]: 10 fold
4 | B4 | 3.9 nM | 0.063 nM | 0.556 nM | 1.2 nM | – | – | – | – | – | – | – | –
5 | B5 | 7.6 nM | 0.0017 nM | 0.111 nM | 0.132 nM | 0.111 nM | 0.132 nM | 0.22 nM | – | 0.0017 nM | 0.0021 nM | 0.064 nM and 0.085 nM | EC50 [19]: 0.073 nM; EC50 [20]: 0.11 nM; EC50 [21]: 0.061 nM and 0.029 nM; EC50 [22]: 0.14 nM; EC50 [23]: 0.31 nM; EC50 [24]: 0.11 nM and 0.06 nM; EC50 [25]: 0.07 nM
6 | B6 | – | – | – | – | – | – | 0.12 nM | 0.034 nM | – | 0.001 nM | 0.038 nM and 0.05 nM | EC50 [26]: 0.05 nM
